# Experimental data from doi:10.1101/827477.
# Biological target: BG505_mut123_N241 SOSIP (HIV-1 (subtype A, BG505)) (UniProt Q2N0S6)
# Assay: negative-stain EM
binder,measurement,value
"13B Fab (Fab, V domains shown) VH: LEESGGGLVQPEGSLTLTCKASGFDFSDYHVQWVRQSPGKGLEFIGGIAYTGNIYYASWAKGRFTISKTSSTTVTLQMTTLTAADTATYFCARAYGYASAPYAQYFNLWGPGTLVTVSS VL: DIVMTQTPASVSEPVGGTVTINCQASQSRGNNYLSWYQQKPGQSPSLLIYRTSTLASGVPSRFKGSGSGTQFTLTISDLECADAATYYCLYGYYSSRNPDFAFGGGTEVVVK",percent of particles with no Fab bound,57%
same,percent of particles with one Fab bound,43%
